Laboratory results taken from patent US20250340626A1 (INTERVET, published 2025).

B1: canine NGF (ligand)
chain: SSSHPVFHRGEFSVCDSVSVWVGDKTTATDIKGKEVMVLGEVNINNSVFKQYFFETKCRDPTPVDSGCRGIDSKHWNSYCTTTHTFVKALTMDGKQAAWRFIRIDTACVCVLSRKAGRRA
notes: also called canine Nerve Growth Factor; cNGF

Assays:
[1] = molecular target: human TrkA on TF-1 cells (human, UniProt P04629 33-796); experiment: cell-based or functional assay
[2] = molecular target: T1, canine NGF receptor TrkA ECD-canine Fc fusion protein (canine); experiment: ELISA, canine NGF on canine TrkA receptor
T1 construct: also called cTrkA-ECD-IgG-B Fc fusion protein; canine TrkA-IgGBFc fusion protein
T1 chain: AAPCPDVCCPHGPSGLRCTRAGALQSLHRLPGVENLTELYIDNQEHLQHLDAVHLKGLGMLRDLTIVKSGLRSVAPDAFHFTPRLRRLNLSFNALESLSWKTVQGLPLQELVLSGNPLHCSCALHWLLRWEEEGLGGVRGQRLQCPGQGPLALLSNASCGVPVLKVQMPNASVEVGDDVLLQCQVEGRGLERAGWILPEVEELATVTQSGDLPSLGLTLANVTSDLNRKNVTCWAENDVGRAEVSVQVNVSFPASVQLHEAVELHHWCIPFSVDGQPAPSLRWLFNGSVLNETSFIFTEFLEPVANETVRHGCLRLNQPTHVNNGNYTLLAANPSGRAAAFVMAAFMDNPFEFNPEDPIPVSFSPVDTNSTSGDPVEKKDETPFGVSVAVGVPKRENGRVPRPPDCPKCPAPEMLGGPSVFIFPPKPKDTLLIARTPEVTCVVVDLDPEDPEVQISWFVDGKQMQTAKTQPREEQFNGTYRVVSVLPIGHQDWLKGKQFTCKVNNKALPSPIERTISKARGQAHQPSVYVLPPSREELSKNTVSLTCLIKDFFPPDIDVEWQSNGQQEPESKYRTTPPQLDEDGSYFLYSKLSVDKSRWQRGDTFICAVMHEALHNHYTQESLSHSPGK

[3] = molecular target: B1; experiment: ELISA, canine NGF coated, anti-dog IgG Fc-HRP detection
Protocol: The binding of chimeric and caninized antibodies to canine NGF was determined by ELISA as follows: [0132] 1. Coat 100 ng/well canine NGF in an immunoplate and incubate the plate at 4° C. overnight. [0133] 2. Wash the plate 3 times by PBS with 0.05% Tween 20 (PBST). [0134] 3. Block the plate by 0.5% BSA in PBS for 45-60 min at room temperature. [0135] 4. Wash the plate 3 times by PBST. [0136] 5. Make 3-fold dilution the antibodies in each column or row of dilution plate. [0137] 6. Transfer the diluted antibodies into each column or row of the immunoplate, and incubate the plate for 45-60 min at room temperature. [0138] 7. Wash the plate 3 times by PBST. [0139] 8. Add 1:2000 diluted horseradish peroxidase labeled anti-dog IgG Fc into each well of the plate and incubate the plate for 45-60 min at room temperature. [0140] 9. Wash the plate 3 times by PBST. [0141] 10. Add TMB Substrate into each well of the plate and incubate the plate for 10 to 15 min at room temperature for color development. [0142] 11. Add 100 μL of 1.5 M phosphoric acid into each well to stop the reaction. [0143] 12. Read the plate at 450 nm with 540 nm reference wavelength.

Chain of human TrkA on TF-1 cells (P04629 33-796): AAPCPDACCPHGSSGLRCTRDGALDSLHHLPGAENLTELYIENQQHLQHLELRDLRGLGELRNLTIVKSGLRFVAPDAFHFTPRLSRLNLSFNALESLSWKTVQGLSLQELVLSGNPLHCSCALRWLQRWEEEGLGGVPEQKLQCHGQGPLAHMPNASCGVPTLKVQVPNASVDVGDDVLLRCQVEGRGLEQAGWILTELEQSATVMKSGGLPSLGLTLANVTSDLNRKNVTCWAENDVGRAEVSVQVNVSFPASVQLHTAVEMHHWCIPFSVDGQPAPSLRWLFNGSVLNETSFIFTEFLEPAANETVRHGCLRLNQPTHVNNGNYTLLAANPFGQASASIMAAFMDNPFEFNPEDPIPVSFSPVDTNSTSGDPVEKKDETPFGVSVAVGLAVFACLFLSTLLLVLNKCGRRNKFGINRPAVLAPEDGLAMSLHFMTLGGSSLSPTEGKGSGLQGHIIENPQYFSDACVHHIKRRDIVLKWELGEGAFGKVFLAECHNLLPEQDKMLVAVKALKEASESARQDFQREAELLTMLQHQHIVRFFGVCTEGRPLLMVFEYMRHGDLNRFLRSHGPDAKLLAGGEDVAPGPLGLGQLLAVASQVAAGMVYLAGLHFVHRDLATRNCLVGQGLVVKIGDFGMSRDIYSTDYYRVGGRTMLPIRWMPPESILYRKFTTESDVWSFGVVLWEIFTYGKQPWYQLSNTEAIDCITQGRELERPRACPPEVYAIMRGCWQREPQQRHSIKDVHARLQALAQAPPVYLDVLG

| Binder | TF-1 cell proliferation (CellTiter-Glo luminescence) EC50 [1] [nM] | EC50 [2] [nM] | EC50 [3] [nM] |
| --- | --- | --- | --- |
| B1 | 28 | 54 | – |
| human-canine chimeric Fasinumab (antibody, V domains shown, Human VH/VL of fasinumab fused to canine IgG-B constant regions and canine kappa constant region; also called Fas Chimeric; Fas Chim) VH: QVQLVQSGAEVKKPGASVKVSCKVSGFTLTELSIHWVRQAPGKGLEWMGGFDPEDGETIYAQKFQGRVTMTEDTSTDTAYMELTSLRSEDTAVYYCSTIGVVTNFDNWGQGTLVTVSS VL: DIQMTQSPSSLSASAGDRVTITCRASQAIRNDLGWYQQKPGKAPKRLIYAAFNLQSGVPSRFSGSGSGTEFTLTISSLQPEDLASYYCQQYNRYPWTFGQGTKVEIKR | – | – | 122 |
| human-canine chimeric Fulranumab (antibody, V domains shown, Human VH/VL of fulranumab fused to canine IgG-B constant regions and canine kappa constant region; expressed in HEK293, Protein A purified; also called Ful Chimeric; Ful Chim) VH: EVQLVESGGGLVQPGGSLRLSCAASGFTLRSYSMNWVRQAPGKGLEWVSYISRSSHTIFYADSVKGRFTISRDNAKNSLYLQMDSLRDEDTAMYYCARVYSSGWHVSDYFDYWGQGILVTVSS VL: AIQLTQSPSSLSASVGDRVTITCRASQGISSALAWYQQKPGKAPKLLIYDASSLESGVPSRFSGSGSGTDFTLTISSLQPEDFATYYCQQFNSYPLTFGGGTKVEIKR | – | – | 0.022 |
